How the values were obtained:
[1] = tested on: tyrosinase isolated from Agaricus bisporus; settings: cited from earlier work
[2] = biological target: T1, tyrosinase of B16 mouse melanoma cells (Mus musculus, UniProt P11344); settings: cited from earlier work
T1 construct: tyrosinase of B16 mouse melanoma cells; host or cells: B16 mouse melanoma cells
T1 sequence (P11344 19-533): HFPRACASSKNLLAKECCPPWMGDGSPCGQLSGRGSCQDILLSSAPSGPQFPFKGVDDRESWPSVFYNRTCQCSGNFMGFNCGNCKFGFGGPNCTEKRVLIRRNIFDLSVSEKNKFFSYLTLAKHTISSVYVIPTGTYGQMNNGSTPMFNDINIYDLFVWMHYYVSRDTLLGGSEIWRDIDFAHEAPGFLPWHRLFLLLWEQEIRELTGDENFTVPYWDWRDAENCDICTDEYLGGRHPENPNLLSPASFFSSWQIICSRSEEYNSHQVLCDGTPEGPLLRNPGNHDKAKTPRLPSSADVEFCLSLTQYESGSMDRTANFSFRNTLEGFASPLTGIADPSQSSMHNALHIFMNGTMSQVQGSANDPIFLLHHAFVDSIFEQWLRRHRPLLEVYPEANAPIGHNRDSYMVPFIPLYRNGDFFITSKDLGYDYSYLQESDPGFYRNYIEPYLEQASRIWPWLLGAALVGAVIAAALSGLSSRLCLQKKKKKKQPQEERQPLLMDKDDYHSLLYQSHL

[3] = enzyme activity assay of refolded recombinant human tyrosinase with L-Dopa as enzyme substrate (A475); assay type: biochemical; settings: for Specificity / Total enzyme activity: 10 L of the starting material, L-Dopa as enzyme substrate
Procedure: In order to analyze the enzyme activity of the aforementioned refolded recombinant human tyrosinase, […] of 50 mM PBS buffer (pH 7.0), and […] crude extract containing refolded recombinant human tyrosinase were mixed and left standing for 5 minutes at 37° C. Subsequently, […] L-Dopa was added (to a final concentration of 3 mM) to the mixture as an enzyme substrate and reacted for 30 minutes at 37° C. The absorbance at A475 was measured using a spectrophotometer.
The final yield of the purification, the total amount of the proteins, the enzyme activity and the analysis of the specificity were summarized in Table 1. Table 1 summarizes the results of 10 L of the starting material, and L-Dopa was used as an enzyme substrate in the enzyme activity assay.

Molecule	Specificity [3]	Total enzyme activity [3]	further results
α-arbutin			inhibitory effects on tyrosinase [1]: does not exhibit any inhibitory effects; inhibition of tyrosinase [2]: significantly inhibits
recombinant human tyrosinase: mature human tyrosinase of 512 amino acids, about 57 kDa, expressed in E. coli BL21(DE3)/pET-23a(+)-RHT and refolded (protein, UniProt P14679 19-529, looked up) Tyrosinase: HFPRACVSSKNLMEKECCPPWSGDRSPCGQLSGRGSCQNILLSNAPLGPQFPFTGVDDRESWPSVFYNRTCQCSGNFMGFNCGNCKFGFWGPNCTERRLLVRRNIFDLSAPEKDKFFAYLTLAKHTISSDYVIPIGTYGQMKNGSTPMFNDINIYDLFVWMHYYVSMDALLGGSEIWRDIDFAHEAPAFLPWHRLFLLRWEQEIQKLTGDENFTIPYWDWRDAEKCDICTDEYMGGQHPTNPNLLSPASFFSSWQIVCSRLEEYNSHQSLCNGTPEGPLRRNPGNHDKSRTPRLPSSADVEFCLSLTQYESGSMDKAANFSFRNTLEGFASPLTGIADASQSSMHNALHIYMNGTMSQVQGSANDPIFLLHHAFVDSIFEQWLRRHRPLQEVYPEANAPIGHNRESYMVPFIPLYRNGDFFISSKDLGYDYSYLQDSDPDSFQDYIKSYLEQASRIWSWLLGAAMVGAVLTALLAGLVSLLCRHKRKQLPEEKQPLLMEKEDYHSLYQSHL			tyrosinase activity ([3]; after isolation from the crude extract using ion-exchange chromatography): 15.5 units/mg; tyrosinase activity ([3]; by using gel filtration chromatography): 57.7 units 1 mg
DEAE ion-exchange: recombinant human tyrosinase fractions after DEAE sepharose Fast Flow ion-exchange chromatography (protein, UniProt P14679 19-529, looked up) Tyrosinase: HFPRACVSSKNLMEKECCPPWSGDRSPCGQLSGRGSCQNILLSNAPLGPQFPFTGVDDRESWPSVFYNRTCQCSGNFMGFNCGNCKFGFWGPNCTERRLLVRRNIFDLSAPEKDKFFAYLTLAKHTISSDYVIPIGTYGQMKNGSTPMFNDINIYDLFVWMHYYVSMDALLGGSEIWRDIDFAHEAPAFLPWHRLFLLRWEQEIQKLTGDENFTIPYWDWRDAEKCDICTDEYMGGQHPTNPNLLSPASFFSSWQIVCSRLEEYNSHQSLCNGTPEGPLRRNPGNHDKSRTPRLPSSADVEFCLSLTQYESGSMDKAANFSFRNTLEGFASPLTGIADASQSSMHNALHIYMNGTMSQVQGSANDPIFLLHHAFVDSIFEQWLRRHRPLQEVYPEANAPIGHNRESYMVPFIPLYRNGDFFISSKDLGYDYSYLQDSDPDSFQDYIKSYLEQASRIWSWLLGAAMVGAVLTALLAGLVSLLCRHKRKQLPEEKQPLLMEKEDYHSLYQSHL	15.5 units/mg	1383.1 units	
Gel filtration: recombinant human tyrosinase fractions after Sephacryl S-100 HR gel filtration chromatography (protein, UniProt P14679 19-529, looked up) Tyrosinase: HFPRACVSSKNLMEKECCPPWSGDRSPCGQLSGRGSCQNILLSNAPLGPQFPFTGVDDRESWPSVFYNRTCQCSGNFMGFNCGNCKFGFWGPNCTERRLLVRRNIFDLSAPEKDKFFAYLTLAKHTISSDYVIPIGTYGQMKNGSTPMFNDINIYDLFVWMHYYVSMDALLGGSEIWRDIDFAHEAPAFLPWHRLFLLRWEQEIQKLTGDENFTIPYWDWRDAEKCDICTDEYMGGQHPTNPNLLSPASFFSSWQIVCSRLEEYNSHQSLCNGTPEGPLRRNPGNHDKSRTPRLPSSADVEFCLSLTQYESGSMDKAANFSFRNTLEGFASPLTGIADASQSSMHNALHIYMNGTMSQVQGSANDPIFLLHHAFVDSIFEQWLRRHRPLQEVYPEANAPIGHNRESYMVPFIPLYRNGDFFISSKDLGYDYSYLQDSDPDSFQDYIKSYLEQASRIWSWLLGAAMVGAVLTALLAGLVSLLCRHKRKQLPEEKQPLLMEKEDYHSLYQSHL	57.7 units/mg	144.3 units	

From patent US20130280784A1, “ESCHERICHIA COLI EXPRESSION SYSTEM FOR PRODUCING MATURE HUMAN TYROSINASE AND A PRODUCING METHOD THEREOF” (PROVIDENCE UNIVERSITY, priority 2012, published 2013)
